Assay [1] concerns the target T1, human ROR1 extracellular domain (ECD) protein (human, UniProt Q01973 30-406).
T1 construct: also called hROR1-ECD; human ROR1-ECD
Description: competitive phage ELISA: soluble ROR1 against ROR1-coated plate. How it is done:
Purified phage antibodies were first diluted serially in PBST buffer, and tested for binding to a ROR1-coated plate. The dilution that gave 50-80% saturating signal was used in the solution binding assay in which phage were first incubated with increasing concentration of ROR1 for one to two hours, and then transferred to a ROR1-coated plate for 10-15 minutes to capture the unbound phage.

In a further assay the target is T2, human ROR2-ECD (human, UniProt Q01974 34-403).
T2 construct: extracellular domain; also called hROR2
Description: protein ELISA, phage.

T1 sequence (Q01973 30-406 limits assumed): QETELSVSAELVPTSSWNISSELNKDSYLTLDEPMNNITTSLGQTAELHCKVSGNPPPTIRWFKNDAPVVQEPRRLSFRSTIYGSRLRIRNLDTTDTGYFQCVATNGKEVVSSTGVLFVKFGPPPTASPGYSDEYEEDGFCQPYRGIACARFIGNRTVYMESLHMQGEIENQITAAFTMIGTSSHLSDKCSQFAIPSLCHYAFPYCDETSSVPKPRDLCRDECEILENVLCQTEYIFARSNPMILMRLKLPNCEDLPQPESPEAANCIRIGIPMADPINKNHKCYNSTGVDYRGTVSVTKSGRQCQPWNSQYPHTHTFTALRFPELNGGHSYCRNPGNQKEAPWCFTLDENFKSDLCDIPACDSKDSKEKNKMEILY
T2 sequence (Q01974 34-403): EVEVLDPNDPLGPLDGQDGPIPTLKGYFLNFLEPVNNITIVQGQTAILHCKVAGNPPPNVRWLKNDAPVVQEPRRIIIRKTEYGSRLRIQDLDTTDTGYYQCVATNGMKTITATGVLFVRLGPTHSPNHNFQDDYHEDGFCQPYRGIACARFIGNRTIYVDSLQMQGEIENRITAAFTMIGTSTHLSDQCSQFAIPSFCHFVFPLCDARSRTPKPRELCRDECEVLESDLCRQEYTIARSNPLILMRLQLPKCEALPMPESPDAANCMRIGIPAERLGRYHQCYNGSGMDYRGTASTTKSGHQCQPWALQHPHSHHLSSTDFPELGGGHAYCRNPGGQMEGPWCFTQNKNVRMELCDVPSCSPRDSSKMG

B1: P601-153 (scFv, V domains shown, not shown: large carriers; small tags and cut ends)
VH: QMQLVQSGAEVKKPGASVKVSCKASGYTFTSYYMHWVRQAPGQGLEWMGIINPSGGSTSYAQKFQGRVTMTRDTSTSTVYMELSSLRSEDTAVYYCARGGYTGWSPSDPWGQGTLVTVSS
VL: QSALTQPASVSGSPGQSITISCTGTSSDVGGYNYVSWYQQHPGKAPKFMIYDVSKRPSGVSNRFSGSKSGNTASLTISGLQAEDEADYYCGSFTSSITYVFGTGTKVTVL
In assay [1], B1 gave an IC50 of 1.53 nM.

B2: P601-40 (scFv, V domains shown)
VH: QVQLQQSGAEVKKPGASVKVSCKASGYTSTNYGISWVRQAPGQGLEWMGWISTYNGNTNYAQKLQGRVTMTTDTSTSTAYMELRSLRSDDTAVYYCARDYYSDSSGYWDDAFDIWGQGTMVTVSS
VL: DIQLTQSPSSLSASVGDRVTITCRASQNINNYLNWYQQKPGKAPKLLLYAASSLQSGVPSRFSGSGSGTEFTLTISSLHPEDFATYYCQQSYNTPFTFGPGTKVDIKR
In the case of B2, the binding result with human ROR2-ECD is “no binding”. This molecule came in with an IC50 in assay [1] of 0.2 nM.

B3: P601-66 (scFv, V domains shown)
VH: QVQLVQSGAEVKEPGASVKVSCKASGYTFRNSGITWVRQAPGQGLEWMGWINPNSGGAMYVDNFQGRATMTRDTSINTAYMELRSLSSDDTAVYYCARGMADLIDVFDIWGQGTLVTVSS
VL: TQPALTQPASVSGSPGQSITISCTGTSSDFGDYDYVSWYQQHPGKAPKLMIYDVSDRPSGVSNRFSGSKSGNTASLTISGLQAEDEADYFCSSFTTSSTLVFGGGTKLTVL
B3 showed an IC50 in assay [1] of 4.05 nM. This lies in the single-digit nanomolar range.

B4: P601-13 (scFv, V domains shown)
VH: EVQLVQSGAEVKKPGSSVKVSCKASGGTFSTFAINWVRQAPGQGLEWMGGVIPVSGTEDYSQKFQGRLSLTADESTGTAYMELSSLRSDDTAVYYCARDRSGRDWDYFDYWGQGTLVTVSS
VL: DIVMTQSPSSLSASVGDRVTITCQASQDISNYLNWYQQKPGKAPKLLIYDASNLETGVPSRFSGSGSGTDFIFTISSLQPEDIATYYCQQFDNLPYTFGQGTKVEIKR
As for B4, the binding result with human ROR2-ECD was “no binding”. Besides, the half-inhibitory concentration (IC50) in assay [1] amounted to 1.21 nM.

B5: P601-130 (scFv, V domains shown)
VH: EVQLVETGGGLVKPGGSLRLSCEASGFSLSSYSMNWVRQAPGKGLEWVSSISSSSTHIYYADSLKGRFTISRDNAKNSLFLQMDNLRAEDTAVYYCARATIGFDYWGQGTLVTVSS
VL: QSVLTQPPSVSGAPGQRVTISCTGSSSNIGAGYDVHWYQQLPGTAPKLLIYGNSNRPSGVPDRFSGSKSGTSASLAITGLQAEDEADYYCQSYDSSLSGYVFGTGTKLTVL
For the molecule B5, the binding result in the assay with human ROR2-ECD was “no binding”. The molecule further yielded a half-maximal inhibitory concentration (IC50) in assay [1] of 3.08 nM.

B6: P601-81 (scFv, V domains shown)
VH: EVQLVESGGGVVRPGGSLRLSCATSGFNFDNYGLSWVRQGPGKGLEWMGFIYKSVNTNYSPSLKSRLTISMDTSKNQFSLNLASVTTADTAIYYCARGKVETSVVDYWGQGTLVTVSS
VL: NFMLTQPRSVSESPGKTVTISCTGNGGRVANNYVQWYQQRPGSAPTTVIYEDNQRPSGVPARFSGSIDSSSNSASLTISGLKTDDEADYYCQSYDISNQRVFGGGTKLTVL
In the case of B6, the binding result with human ROR2-ECD is “no binding”. The molecule further showed an IC50 in assay [1] of 2.76 nM.

B7: P601-87 (scFv, V domains shown)
VH: QVQLQESGPGLVKSSETLSLTCTVSGGSMNNYYWSWIRQPAGKGLEWMGRIYSSGSTNYNPALKSRVTMSVDTSKNQFSLNLSSVTAADTAIYYCARASWSGTYWALFDYWGQGTLVTVSS
VL: ETTLTQSPAFMSATPGDKVNISCKASQDIDDDLNWYQQKPGEAPILIIQEATTLVPGIPPRFSGSGFGTDFTLTINSMQSEDVAYYFCLQHDNFPPTFGQGTKVEIK
Consider B7, for which the binding result in the assay with human ROR2-ECD was “no binding”. In assay [1], this molecule yielded an IC50 of 3.86 nM.

B8: P601-6 (scFv, V domains shown)
VH: EVQLVESGGGLVKPGGSLKLSCAASGFTFSDYYMGWVRQAPGKGLKWLSYISDRAHTIYDTHSVKGRFTISRDDAKSSLYLRMNNLRVEDTAVYYCARAVGAGEGFDYWCQGTLVTVSS
VL: DIQMTQSPSSLSASVGDRVTITCQASQDIRNYLNWYQQKPGKAPKLLIYAASNLETGVPSRFSGSGSGTDFTFTISSLQPEDIATYYCQQDDNLPLTFGGGTKLEIK
As for B8, in assay [1], the half-maximal inhibitory concentration (IC50) is 2.12 nM.

B9: P601-5 (scFv, V domains shown)
VH: EVQLVESGGGLVKPGGSLRLSCAASGFTFSDYYMGWVRQAPGKGLKWLSYISDRAHTIYDTDSVKGRFTISRDDAKSSLYLRMNNLRVEDTAVYYCARAVGAGEGFDYWGQGTLVTVSS
VL: not shown
As to B9, in the assay with human ROR2-ECD, the binding result is reported as “no binding”.

B10: P601-149 (scFv, V domains shown, not shown: large carriers; small tags and cut ends)
VH: EAQLVESGGGLVKPGGSLRLSCAASGFTFSDYYMGWVRQAPGKGLKWLSYISDRAHTIYDTDSVKGRFTISRDDAKSSLYLRMNNLRVEDTAVYYCARAVGAGEGFDYWGQGTLVTVSS
VL: DIQLTQSPSSLSASVGDRVTITCQASQDVRNYLNWYQQKPGKAPNLLIYDATNLESGVPSRFSGSGSGTDFTFTISSLQPEDFATYYCQQYDNLPLSFGGGTKVEIK
Consider B10, for which the half-maximal inhibitory concentration (IC50) in assay [1] came out at 2.76 nM.

B11: P601-2 (scFv, V domains shown)
VH: QVTLKESGPTLVKPTQTLTLTCTFSGFSLSSFGVAVGWFRQPPGKALEWLGLIYWDDDKRYSPSLKTRLTITKDTSKNQVVLTMTNMDPVDTATYYCAHKGGIATTGSPNWFDPWGQGTLVTVSS
VL: not shown
On to B11, for which the binding result with human ROR2-ECD is listed as “no binding”.

B12: P601-86 (scFv, V domains shown)
VH: QVTLKESGPTLLKPTQTLTLTCTFSGFSLSTRGVGVGWIRQPPGQALEWLTLIYWDDDKRYSPSLKSRLTITKDTSKNQVVLTMTNMESVDTATYYCAQQTMTGAFDIWGQGTTVTVSS
VL: DIQMTQSPSSVSASVGDRVTITCRASQGISTLLAWYQQKPGKAPKLLISSASSLQSGVPARFSGSGSGTDFTLTISSLQPEDFATYYCQQSYRAPTFGQGTKVEIKR
Turning to B12, the binding result with human ROR2-ECD is “no binding”. In assay [1], this molecule displayed a half-inhibitory concentration (IC50) of 1.84 nM.

B13: P601-112 (scFv, V domains shown)
VH: EVQLVQSGGDLVQPGGSLRLSCAASGFTFSSYSMNWVRQAPGKGLEWVSSISSSSSYIYYADSVKGRFTISRDNAKNSLYLQMNSLRAEDTAVYYCARGLGGWTHDAFDIWGQGTTVTVSS
VL: QSALTQPASVSGSPGQSITISCTGTSSDVGGYNYVSWYQQHPGKAPKLMIYDVSKRPSGVSNRFSGSKSGNTASLTISGLQAEDEADYYCSSYTGRSTVFGGGTKLTVL
Consider B13, for which the binding result with human ROR2-ECD was “no binding”. The same molecule displayed an IC50 in assay [1] of 2.89 nM.

B14: P601-120 (scFv, V domains shown)
VH: EVQLVQSGGDLVQPGGSLRLSCAASGFTFSSYSMNWVRQAPGKGLEWVSSISSSSSYIYYADSVKGRFTISRDNAKNSLYLQMNSLRAEDTAVYYCARGLGGWTHDAFDIWGQGTTVTVSS
VL: QSALTQPASVSGSPGQSITISCTGTSSDVGGYNYVSWYQQHPGKAPKLMIYDVSNRPSGVSNRFSGSKSGNTASLTISGLQAEDEADYYCSSYTSSSTRVFGGGTKLTVL
For B14, the binding result in the assay with human ROR2-ECD is “no binding”. In assay [1], this molecule gave an IC50 of 1.92 nM.

B15: P601-109 (scFv, V domains shown)
VH: QMQLVQSGGDLVQPGGSLRLSCAASGFTFSSYSMNWVRQAPGKGLEWVSSISSSSSYIYYADSVKGRFTISRDNAKNSLYLQMNSLRAEDTAVYYCARGLGGWTHDAFDIWGQGTTVTVSS
VL: QSALTQPASVSGSPGQSITISCTGTSSDVGGYNYVSWYQQHPGKAPKLLIYEVSQRPSGVPDRFSGSKSGNTASLTVSGLQAEDEADYYCSSYAGDRDVFGTGTQLTVLS
In the case of B15, the binding result in the assay with human ROR2-ECD was “no binding”. The molecule also showed a half-maximal inhibitory concentration (IC50) in assay [1] of 0.22 nM.

B16: P601-103 (scFv, V domains shown)
VH: EVQLVQSGGDLVQPGGSLRLSCAASGFTFSSYSMNWVRQAPGKGLEWVSSISSSSSYIYYADSVKGRFTISRDNAKNSLYLQMNSLRAEDTAVYYCARGLGGWTHDAFDIWGQGTTVTVSS
VL: QSVLTQPASVSGSPGQSITISCTGTTSDVGGYNYVSWYQQHPGKAPKLMIYDVSKRPSGVSNRFSGSKSGNTASLTISGLQAEDEADYYCSSYTSSSTDVFGTGTKLTVL
Consider B16, for which the binding result with human ROR2-ECD is reported as “no binding”. The 50% inhibitory concentration (IC50) in assay [1] worked out at 8.72 nM.

B17: P601-110 (scFv, V domains shown)
VH: QVQLVQSGGDLVQPGGSLRLSCAASGFTFSSYSMNWVRQAPGKGLEWVSSISSSSSYIYYADSVKGRFTISRDNAKNSLYLQMNSLRAEDTAVYYCARGLGGWTHDAFDIWGQGTTVTVSS
VL: QSALTQPASVSGSPGQSITLSCTGTSSDVGGYNYVSWYQQHPGNGPKLIIYDVTKRPSGVSNRFSGSKSGNTAYLTISGLQAEDEADYYCASYTRSTTLVFGGGTKLTVL
Regarding B17, the binding result with human ROR2-ECD is reported as “no binding”. The molecule also registered a half-inhibitory concentration (IC50) in assay [1] of 4.57 nM.

B18: P601-137 (scFv, V domains shown)
VH: QVQLQQSGAEVKKPGASVKVSCKASGYTFSRYYIHWVRQAPGQGLEWMGIINTDGGTTTYAQKFQGRLTMTRDTSTSTVYMELSSLRSDDTAVYYCARDYGTIDARRFDYWGQGTLVTVSS
VL: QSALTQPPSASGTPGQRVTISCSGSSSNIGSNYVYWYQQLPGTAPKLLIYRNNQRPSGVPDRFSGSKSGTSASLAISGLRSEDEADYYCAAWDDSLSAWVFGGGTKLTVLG
With B18, the binding result with human ROR2-ECD is reported as “no binding”. For the same molecule, the half-maximal inhibitory concentration (IC50) in assay [1] is 1.82 nM.

B19: P601-136 (scFv, V domains shown)
VH: QVQLVQSGAEVKKPGASVKVSCKASGYTFSRYYIHWVRQAPGQGLEWMGLINPGGGSTNYAQKFQGRVTMTRDTSTNTVYLELSSLRSDDTAVYYCARDYGTIDARRFDFWGQGTLVTVSS
VL: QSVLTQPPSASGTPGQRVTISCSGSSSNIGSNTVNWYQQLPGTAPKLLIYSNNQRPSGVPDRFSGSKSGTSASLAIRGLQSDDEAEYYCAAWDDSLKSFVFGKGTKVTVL
Take B19: the binding result with human ROR2-ECD is “no binding”. In assay [1], this molecule showed an IC50 of 3.02 nM.

B20: P601-3 (scFv, V domains shown)
VH: QVTLKESGPTLVKPTQTLTLTCTFSGFSLNSFGVAVGWFRQPPGKALEWLGLIYWDDDRRYFPSLEGRLSITKDASDNNVVLTMMNVDPADTATYYCARTSPMVQGIANYYAMDVWGQGTTVTVSS
VL: not shown
On to B20, for which, in the assay with human ROR2-ECD, the binding result is recorded as “no binding”.

B21: P601-101 (scFv, V domains shown)
VH: EVQLVQSGNEVKRPGASVKVSCKASGHSFSTYGFSWVRQAPGQGLEWMGWISTYNGNTNYAQKLQGRVTMTTDTSTSTAYMELRSLRSDDTAVYYCARDYYSDSSGYWDDAFDIWGQGTLVTVSS
VL: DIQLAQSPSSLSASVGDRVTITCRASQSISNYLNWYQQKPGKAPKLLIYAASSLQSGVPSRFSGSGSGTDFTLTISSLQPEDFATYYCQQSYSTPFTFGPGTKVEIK
Consider B21, for which the binding result with human ROR2-ECD is recorded as “no binding”. Further, the IC50 in assay [1] turned out to be 1.5 nM.

The values above are taken from patent publication US20180009892A1 (EUREKA THERAPEUTICS, published 2018).
